This note sets out measurements from US20220348674A1 (APOLLOMICS, published 2022).

Positions count from the first letter of the chain named.

In experiment [1] the target is T1, purified recombinant human CD40 protein (human, UniProt P25942 21-193).
T1 construct: also called recombinant CD40
Description: ELISA on coated recombinant human CD40; chimeric antibody supernatant. On the procedure: ELISA plate was coated with purified recombinant CD40 protein in coating buffer at lug/ml overnight. After washed for 3 times, the plate was blocked with 1% BSA, and then cell culture supernatants containing rabbit-human chimeric CD40 antibodies were added to the plate. For detection of the antibody binding to CD40 protein, goat anti-human Fc polyclonal antibody conjugated to alkaline phosphatase was used.
In general terms: In an ELISA, binding on a coated surface is turned into a signal by an enzyme label.

Experiment [2] deals with CD40 on HEKBlue CD40L reporter cells (UniProt P25942 21-277, limits assumed). In words: cell-based or functional assay.
CD40 on HEKBlue CD40L reporter cells, sequence (P25942 21-277 limits assumed): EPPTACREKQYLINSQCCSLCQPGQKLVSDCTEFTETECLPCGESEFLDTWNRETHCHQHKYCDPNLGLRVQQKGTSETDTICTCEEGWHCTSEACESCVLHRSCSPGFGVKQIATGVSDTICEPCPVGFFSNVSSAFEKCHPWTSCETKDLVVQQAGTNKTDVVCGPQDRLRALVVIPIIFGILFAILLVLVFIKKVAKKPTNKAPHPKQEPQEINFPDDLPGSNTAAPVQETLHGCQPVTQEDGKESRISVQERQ
Experiment [3] addresses T1, purified recombinant human CD40 protein. Description: Octet (BLI), recombinant CD40.
Experiment [4] has as its target T2, cell surface human CD40 on HEK-CD40 cells (human, UniProt P25942 21-277).
T2 construct: whole, on cells; also called cell surface CD40
Description: flow cytometry, titration on HEK-CD40 cells, CD40 MFI, anti-human IgG secondary antibody. Here is the method:
HEK-CD40 were collected and plated at 10⁵ cells per well in 96-well round bottom plate in FACS buffer. Serial dilutions of antibodies (Control IgG1, CP870,893, APX005m and 3B5) in 100 ul were incubated with the HEK-CD40 cells for 60 min at 4° C. Cells were washed 3 times with 200 ul FACS buffer. Cell-bound antibodies were detected using an APC-conjugated secondary antibody specific to human IgG heavy and light chain. After incubating 30 min with secondary antibody, HEK-CD40 cells were washed 3 times with 200 ul FACS buffer and resuspended in 200 ul FACS with 1 ug/ml DAPI. Flow cytometric analyses were performed using Attune N×T flow cytometer (ThermoFisher Scientific, Waltham, Mass.). After gating on FCS-SSC parameters to exclude debris and selectively gating DAPI negative cells on DAPI-SSC parameters to exclude dead cells, the geometric mean fluorescence intensity (MFI) of antibodies was determined using FlowJo v10 (BD Bioscience, San Jose, Calif.). Dose-response curves were generated and EC50s calculated using GraphPad Prism 8 (GraphPad Software, San Diego, Calif.).
In general terms: In flow cytometry, cells or beads pass a laser one at a time.

T1 sequence (P25942 21-193 limits assumed): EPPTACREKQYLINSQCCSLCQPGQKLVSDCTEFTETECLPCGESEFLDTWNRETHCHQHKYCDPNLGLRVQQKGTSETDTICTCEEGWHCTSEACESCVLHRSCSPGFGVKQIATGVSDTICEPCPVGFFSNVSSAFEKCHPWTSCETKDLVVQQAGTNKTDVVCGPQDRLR
T2 sequence (P25942 21-277): as the sequence (P25942 21-277 limits assumed) above

B1: 196 rabbit-human chimeric anti-CD40 antibody (antibody, V domains shown)
VH: QSVEESGGRLVTPGTPLTLTCTVSGFSLSAYAIHWVRQAPGKGLEYIGIIDAGGNIVYATWALGRFTISKTSTTVDLKITSPTTEDTATYFCGRGLSSYSNSAMDLWGPGTLVTVSS
VL: DVVMTQTPASVSEPVGGTVTMKCQASQNIYTYLAWYQQKPGRPPKLLIYQASTLASGVSSRFSGSGSGTEFTLTISDLECADAATYYCQSTAGNAYNAFGGGTEVVVK
notes: tested as cell culture supernatant
Turning to B1, the OD405 in experiment [1] stood at 1.92 OD405.

B2: 2E3 rabbit-human chimeric anti-CD40 antibody (antibody, V domains shown)
VH: QSVEESGGRLVTPGTPLTLTCTVSGFSLSTYAMSWVRQAPGKGLEWIGIIDGSSFTVYANWAKGRFTISKTSTTVDLKMTSLTASDTATYFCARGATFFGLWGPGTLVTVSS
VL: DVVMTQTPASVSAAVGGTVTIKCQASQSISGVLAWYQQKPGQPPKLLIYRAADLASGVPSRFKGSGSGTEFTLTINDLECDDAATYYCQSYYYSNSGSYSYAFGGGTEVVVK
notes: as for B1
Consider B2, for which the OD405 in experiment [1] amounted to 1.62 OD405.

B3: 3B5, humanized anti-CD40 mAb, IgG1 isotype (antibody, V domains shown)
VH: EVQLVESGGGLIQPGGSLRLSCAVSGFSLSTYAVSWVRQAPGKGLEWVGIIDSGGGTAYASWVKGRFTISRDNSKNTLYLQMNSLRAEDTAVYYCARGVTFFGLWGQGTLVTVSS
VL: DIVMTQSPSTLSASVGDRVTITCQASQSISNYLSWYQQKPGKAPKLLIYRASDLASGVPSRFSGSGSGTEFTLTISSLQPDDFATYYCQAYYYSGGGSYDYAFGGGTKVEIK
notes: also called HZD_3B5; 3B5 antibody
By Kd is commonly meant the free concentration of one partner at which half of the binding sites on the other are occupied at equilibrium, for simple one-to-one binding. As usually defined, the koff is the first-order rate constant of dissociation. A word on the kon: it is a measure of how fast the partners come together. The EC50 is the concentration at which the effect is half-maximal. For B3, in experiment [2], the “IC50 (read off the curve)” value was ~0.06 µg/mL. For the same molecule, in experiment [3], the equilibrium dissociation constant (Kd) was < 1 pM, the koff was < 1e-07 s⁻¹ and the kon turned out to be 1.06e+06 M⁻¹ s⁻¹. In experiment [4], this molecule came in with an EC50 of 0.69 µg/mL.

B4: 197 rabbit-human chimeric anti-CD40 antibody (antibody, V domains shown)
VH: QEQLKESGGGLVTPGTALTLTCTASGSDISSYAMNWVRQAPGKGLEYIGVITSSGTIYYANWATGRFTISKASSTTVDLKTTRLTTEDTATYFCARGITGAVTTGLSLWGPGTLVTVSS
VL: DVVMTQTPPSVSEPVGGTVTIKCQASQNIYNNLAWYQQTPGQPPKLLGYAASNLASGVSSRFSGSGYGTEFTLTISDLECADAATYYCLGGYYGNNVGNTFGGGTEVVVK
notes: as for B1
With B4, the OD405 in experiment [1] is 2.01 OD405.

B5: 3E12 rabbit-human chimeric anti-CD40 antibody (antibody, V domains shown)
VH: QSVKESEGGLFKPTDTLTLTCTVSGFSFSNYRMIWVRQAPGNGLEWIGVIDRNDNTYYATWAKSRSTITRNTNLNTVTLKMTSLTAADTATYFCARDTDYTTGGIWGPGTLVTVSS
VL: DIVMTQTPASVSAAVGGTVTIKCQASQNIGDNLAWHQQKPGQPPKLLIYGASTLASGVPSRFKGSGSRTEYTLTISDLECADAATYYCQSNYYSTSSSYYNSFGGGTEVVVK
notes: as for B1
Take B5: in experiment [1], the OD405 was 1.39 OD405.

B6: 4B7 rabbit-human chimeric anti-CD40 antibody (antibody, V domains shown)
VH: B5 VH with S27T, F28L, M33V, V49G, N53S, D54A, N55V, T56A, T60S, T102S
VL: DIVMTQTPSSVSAAVGGTVTIKCQASQNIGGNLAWYQQKPGQPPKLLIYGSSTLESGVPSRFSGSGSGTEYTLTISDLQCADAATYYCQSNYWSRSSSYVNSFGGGTEVVVK
notes: as for B1
With B6, in experiment [1], the OD405 was 1.72 OD405.

B7: 3B5 rabbit-human chimeric anti-CD40 antibody (antibody, V domains shown)
VH: QSVEESGGRLITPGTPLTLTCTVSGFSLSTYAVSWVRQAPGKGLEWIGIIDSGGGTAYASWVKGRFTISKTSTTVDLKITSPTTEDTATYFCARGVTFFGLWGPGTLVTVSS
VL: DIVMTQTPASVEAAVGGTVTIKCQASQSISNYLSWYQQKPGQPPKLLIYRASDLASGVPSRFKGSGSGTEFTLTISDLECADAATYYCQAYYYSGGGSYDYAFGGGTEVVVK
notes: as for B1
As for B7, the OD405 in experiment [1] was 1.48 OD405.

B8: 4A7 rabbit-human chimeric anti-CD40 antibody (antibody, V domains shown)
VH: QSVEESGGRLVTPGTPLTLTCTVSGFSLSTYAMSWVRQAPGKGLEWIGIIDGGGFAVYANWAKGRFTISKASTTVDLKLPSPTTEDTATYFCARGVTFFNLWGPGTLVTVSS
VL: B7 VL with G17D, N31S, Y32A, S34A, D53T, A55E, A90S, G95S
notes: as for B1
Take B8: the OD405 in experiment [1] came to 1.65 OD405.

B9: 198 rabbit-human chimeric anti-CD40 antibody (antibody, V domains shown)
VH: QSVKESEGGLFKPTDTLTLTCTVSGFSLGSYTMAWVRQAPGNGLEYIGTIDSSGSADYASWAQSRSTITRNTNLNTVTLKMTSLTAADTATYFCARPTNYEYTWALNIWGPGTLVTVSS
VL: DVVMTQTPASVSEPVGGTVTIKCQASQTIYSYLAWYQQKPGQPPKLLIYGASKLASGVPSRFSGSRSGTEFTLTISDLECADAATYYCQCTGYDSAYVYNDFGGGTEVVVK
notes: as for B1
As for B9, the OD405 in experiment [1] was 1.8 OD405.
